From article PMC7229837, “Molecular architecture of the DNA-binding sites of the P-loop ATPases MipZ and ParA from Caulobacter crescentus” come the findings set out here.

Holding throughout (details): protein: recombinant; tags: C-terminal His6 (pET21a); chain copies: 2; label: Cy3 (5') on strand 1; blunt
Data set [1] deals with T1, MipZ D42A (Caulobacter crescentus, UniProt Q9A6C9 1-278, D42A).
T1 sequence: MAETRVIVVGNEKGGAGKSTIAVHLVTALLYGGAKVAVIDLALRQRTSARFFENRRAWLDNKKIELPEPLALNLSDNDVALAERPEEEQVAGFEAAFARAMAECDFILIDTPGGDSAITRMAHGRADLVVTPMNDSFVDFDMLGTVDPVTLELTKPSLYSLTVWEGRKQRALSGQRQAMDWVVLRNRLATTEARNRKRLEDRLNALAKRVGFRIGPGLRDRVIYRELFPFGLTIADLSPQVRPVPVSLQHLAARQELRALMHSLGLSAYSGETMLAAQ
The experiment in a line: MST; EMSA: 10 mM HEPES/NaOH pH 7.2, 150 mM NaCl, 10 mM MgCl2, 0.05% Tween 20, 0.46 mM ATPgS, room temp; BLI: 50 mM HEPES/NaOH pH 7.2, 50 mM NaCl, 5 mM MgCl2, 0.1 mM.

The target of data set [2] is T2, MipZ L248A (Caulobacter crescentus, UniProt Q9A6C9 1-278, L248A).
T2 sequence: T1 sequence with A42D, L248A
The data set is described as above.

The target of data set [3] is T3, MipZ WT (Caulobacter crescentus, UniProt Q9A6C9 1-278).
T3 sequence: T1 sequence with A42D
The description is as above.

Data set [4] deals with T4, MipZ R221A (Caulobacter crescentus, UniProt Q9A6C9 1-278, R221A).
T4 sequence: T1 sequence with A42D, R221A
The experiment in a line: MST; hardly any binding; EMSA: 10 mM HEPES/NaOH pH 7.2, 150 mM NaCl, 10 mM MgCl2, 0.05% Tween 20, 0.46 mM ATPgS, room temp; BLI: 50 mM HEPES/NaOH pH 7.2, 50 mM NaCl, 5 mM MgCl2, 0.1 mM.

Data set [5] addresses T5, MipZ R194A (Caulobacter crescentus, UniProt Q9A6C9 1-278, R194A).
T5 sequence: T1 sequence with A42D, R194A
Described as above.

The target of data set [6] is T6, MipZ R198A (Caulobacter crescentus, UniProt Q9A6C9 1-278, R198A).
T6 sequence: T1 sequence with A42D, R198A
Described as above.

Changes are numbered by the printed parent chain.

B1: rand-Cy3/rand-rev 26 bp (dsDNA)
DNA 1: GAGGCAGACTAGATCTTCTAGTTCGG
DNA 2: CCGAACTAGAAGATCTAGTCTGCCTC
As usually defined, the Kd is the constant that tells how readily two partners part at equilibrium. For the molecule B1, the Kd in data set [1], in data set [2] and in data set [3] was < 10 µM throughout. Further, the binding result in data set [4], in data set [5] and in data set [6] was “no binding” in each case.
